# Experiment: yeast display, Sf9 membrane polyspecificity reagent, FACS + sequencing; frameworks hold sequencing errors
# Procedure, shortened: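 Galactose-induced (36–48 hours) yeast carrying a synthetic nanobody display library were exposed to 10% biotinylated, detergent-solubilized Sf9 membrane reagent at 4 °C for 1 hour. FACS followed streptavidin microbead enrichment, using low and high (top ~1%) gates for expression (anti-HA) and reagent binding (streptavidin). Colony PCR, MiSeq 2 × 250 sequencing and CDR-length filtering followed. Labels for polyreactivity reflect the gate of origin.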
row,Sequence,polyreactivity (PSR sort gate)
1,HVQLVESGGGLVQAGGSLRLSCAASGSIFAQYAMGWYRQAPRKDRELLAAISRSTGRTYYADSVKGRFTISRDNAKNTVYLQMNSLKPEDNAVYYWNVVANRALSRSGYDYWGQGTQVTVSS,high polyreactivity
2,QVQLVESGGGLVQAGGSLRLSSAASGFTLDWYVIGWYRKAPWKERELVAAISSSGGRTYYADSVKGRFTISRDNAKNTVYLQMNSLKPEDTAVYYCAARNIYGGYPYGYDYWGQGTQVTVSS,high polyreactivity
3,QVQLVESGGGLVQAGGSLRLSCAASGSIIRSYTMGWYRQAPGKERELVASISRTGGSTHYADSVKGRFTISRDNAKNTVYLQMNSLKPEDTAVYYCNADTRRNRLMDYWGQGTQVTVSS,high polyreactivity
4,QVQLVESGGGLVQAGGSLRLSCAASGIIFASNAMGWYRQAPGKERELVAAINRSGGSTYYADSVKGRFTISRDNAKNTVYLQMNSMKPEDTAVYYCAADYRFYSPTKYSYDYWGQGTLVTVSS,high polyreactivity
5,QVQIVESGGGLVQAGGSLRISCAASGFIFNRYAMGWYRQAPGTERELVADITGGSTYFADSVKGRFTISRDNAKNTVYLLMKSLKPEDTAVYYCAADVLRISTLLFRGPGFDYWGQGTQVTVSS,low polyreactivity
6,QVQLVESGGGLVQAGGSLRLSCAASGRIFYAYAMGWYRQAPGKEREFVAAISWGGGSTNYADSVKGRFTISRDNAKNTVYLQMNSLKPEDTAVYYCATGFYYYLTKTIPYEYEYWGQGTQVTVSS,low polyreactivity
7,QVQLVESGGGLLQAGGSLRLSCAASGSIFGSYVMGWYRQAPGKERELVAAITASGGSTYYADSVKGRFTISRDTAKNTVYLQMNSLKPEDTAVYYCATKRTWPVGEMYYWGQGTQVTVSS,high polyreactivity
8,QVQLVESWGGLVQAGGSLRLSCAASGIIRSNAMGWYRQAPGKERELVAVISSSGGRTYYADSVKGRFTISRDNAKNTVYLQMNSLKPEDTAVYYCAAQVQVGAFSYYYWGQGTQVTVSS,high polyreactivity
9,QVQLVESGGGLVQAGASLRLSCAGSGIIFTRYAMGWYRQAPGKERELVAAITRNGVSTYYADSVKGRFTISRDNAKNTVYLQMNSLKPEDTAVYYCNTYVLRRYAYGYWGQGTQVTVSS,high polyreactivity
10,QVQLVESGGGLVQAGGSLRLSCAAYGSIFSGYTMGCYRQAPGKERELVAAITQRGTRTYYADSVKGRFTISRDNAKNTVYLQMNSLKPEDTAVYYCAAVRSYYSNRGYDYWGQGTQVTVSS,high polyreactivity
11,QVQLVESGGGLVQAGGSLRLSCAASGRTFESNAMGWYRQAPGKERELVASITDGGSTNYADSVKGRFTISRDNAKNTVYLQMNSLKPEDSAVYYCNVTKRGSLWSVPDQTYDYWGQGTQVTVSS,low polyreactivity
12,QVQLVESGGGLVQAGGSLRLSCAASGRIFTVYAMGWYRQAPGKERELVAAIDFSDGTTYYADSVKARFTISRDNAKNTVYLQMNSLKPEDTAVYYCAAEGGSALDDDYWGQGTQVTVSS,high polyreactivity
13,QVQLVESGGGLVQAGGRLRLSCAASGRTLGANAMGWYRQAPGKERELVAAITDSGGSTYYADSVKGRFTISRDNAKNTVYLQMNSLKPEDTAVYYCAAKQAYSSTYVWPIFDYWGQGTQVTVSS,low polyreactivity
14,QVQLVESGGGLVQAGGSLRLSCAASGFTFYTNAMGWYRQAPGKERELVADITTSGGDTYYADSVKGRFTISRDNAKNTVYLQMNSLTPEDTAVYYCGEFWTYWGYGQYDYWGQCTQVTVSS,low polyreactivity
15,QVQLVESGGGLVQAGGSLRLSCAASGRTFIYYAMGWYRQAPGKERELVAGISRNGGRTYYADSVKGRFTISRDNAKNTVYLQMNSLKPEDTAVYYCNARTYSYRGYNYWGQGTQVTVSS,high polyreactivity
16,QVQLVESGGGLVQAGGSLRLSCAASGSTFSRYAMGWYRQAPGKERELVAAISWRGGRTYYADSVKGRFTISRDNAKNTVYLQMNSLKPADTAVYYCNAVSYFTSQRYDYWGQGTQVTVSS,high polyreactivity
17,QVQLVESRGGLVQAGGSLRLSCAASGRIFSWYSMGWYRQPPGTERELVAGISWIGGSTYYADSVKGRFTFSRDNAKNTVYLQMISLKPEDTAVYYCNAEYFGEYRDYGYWGQGTQVTVSS,low polyreactivity
18,QVQLVESGGGLVQAGGSLRLSCAASGLIFYDNMVWYRQGPGTETELVAAISSSGGSTSYADSVKGRFTISRDNAKNTVYLQMNILKPEDTAVYYCAADSYPAYLGFVCFDYWGQGTEVTVSS,low polyreactivity
19,QVQLVESGGGLVQAGGSLRLSCAASGRTFIFNAMGWYRQAPGKERELVAAISSGGGTNYADSVKGRFTISRDNAKNTVYLQMNSLKPEVTAVYYCAADPRDHYSYVYDGYKYDYWGQGTQVTVSS,low polyreactivity
20,QVQLVESVGGLVQAGGSLRLSCAASGSIFVTNALGWYRQAPGKERELVAAISSGGNTNYADSVKGRFTISRDNAKNTVYLQMNSLKPEDTAVYDCAKDPDKVDYVDMDYWGQGTQVTVSS,low polyreactivity
21,QVQLVESGGVLVQAGGSLRLSCAASGSTFTDYAMGWYRQAPGKERELVAAITDSGGRTYYADSVKGRFTISRDNAKNTVYLQMNSLKPEDTAVYYCATEDDRWYYWGQGTQVTVSS,high polyreactivity
22,QVQLVESGVGLVQAGGSLRLSCAASGSIFEYYTMGWYRQAPGKERELVAAISSDGSTNYADSVTGRFTISRDDAKTTVYLQMISLKPEDTAVDYCASSTSRFYYYRKRGYWGQGTQVTVSS,low polyreactivity

row,Sequence,polyreactivity (PSR sort gate)
1,QVQLVESGGGLVQAGGSLRLSCAASGFILDYNAMGWYRQAPGKERELVAAITNGGITYYADSVKGRFTISRDNAQNTVYLQMNSLKPEDTAVYYCAADNDTDHSSATYGYDYWGQGTQVTVSS,low polyreactivity
2,QVQLVESGGGLVQAGGSLRLSCAASVRIFVYYAMGWYRQAPGKERELVASISYSGASTYYADSVKGRFTISRDNAKKTVYLQMNSLKPEDTAVYYCNTDGDDFFHVIYDYWGQGTQVTVSS,low polyreactivity
3,QVQLVESGGGLVQAGGSLRLSCAASGSTFKPYAMGWYRQAPGKERELVAAISRGTRTYADSVKGRFTITRDNAKNTVYLQMNSLKPEDTAVYYCAAEWRWIFGYHYEYDYWGQGTQVTVSS,low polyreactivity
4,QVQLVESCGGLVQAGGSLRLICAASGSIFFRNAKGWYRQAPGKERELVAAIRYTGTSTYYADSVKGRFTISRDNAKNTVYVQMNSLKPEDTAVYYCAKPWGSVRRREMDYWGQGTQVTVSS,low polyreactivity
5,QVQLVESGGGLDQAGGSLRLSCAASGFILDTYGMGWYRQATGTERELVAAISQSDVSTYYADSVKGRFTISRDNAKNTVYLQMNSLKPEDTAVYYCAAAHLSYRRRYESWGQGTQVTVSS,low polyreactivity
6,QVQLVESGGGLDQAGGSLPLSCAASGSTFPGNAMGWYSQARGKERELVARINDGADTNYADSVKGRFTISRDNAKNTVYLQMNSLKPEDTAVYYCAADKRGTVYLSSFWMDYWGQGTQVTVSS,low polyreactivity
7,QVQLVESGGGLVQAGGSLRLSCAASGSIFKYYAMGWYRQAPGKERELVAAITWSGGRTNYADSVKGRFTISRDNAKNTVYLQMNSLKPEDTAVYYCNKAYPGLERWYRGLYYWGQGTQVTVSS,high polyreactivity
8,QVQLVESGGGLVQAGGSLRLSCAASGRTFSYYTMGWSRQAPGKERQLVARISNRGTNTYYADSVKGRFTISRDNAKNTVYLQMNSLIPEDTGVYYCAKYYYTSIVGYDSWGQGTQVTVSS,low polyreactivity
9,QVHLVESGGGLVQAGGSLRLSCAASVRIISAYAMGWYRQAPGKERELVAAINGSGGSTYYADSVKGRFTISRDNAKNTVYLQMNSLKPEDTAVYYCAAKIDYPDARYFPYRYYYWGQGTQVTVSS,high polyreactivity
10,QVQLVDSGGGLVQAGGSLRLSCAASGSTLNVYAMGWSRQAPGKERELVATIRRRGTSTYYADSVKGRFTISRDNAKNTVYLQMNSLKPEDTAVYYCAADTRTYRLSSGSGHWEYDYWGQGTQVTVSS,high polyreactivity
11,QVQHVESGGGLVQAGGSLRLRCAASARTFLANAMGWYRQAPGKERELLAAITYSGGRTYYADSVKGRFTISRDNAKNTVYLQMNSLKPEDTAVYYCAAEGKVTSQYTMDYWGLGTQVTVSS,high polyreactivity
12,QVQLVESGGGLVQAGGSLRLSCAASGSTSGIYAMGWYRQAHGKERELVAAIDTSGGSTYADSVKGRFTISRDNAKNTVYLQMNSLKPEETAVYYCAKPFSSNSWSHGYWGQGTQVTVSS,low polyreactivity
13,QVQLVESVGGLVQAGGSLRLSCAASGLTFYVYAMGRYRQAPGKERELVAAITQNGGTTYYADSVKGRFTISRDNAKNTVYLQMNSLKPEDTAVYNCAARRLYAGHQYDYWGQGTQVTVSS,high polyreactivity
14,QVQLVESGGGLVQAGGSLRLSCAASGIIFYDYVMGWYRQAPGKERELVTAISSNGGSTYYADSVKGRFTISRDNAKNTVYLQMNRLKPEDTAVYYCAAEGKSYPWPWYFDYWGQGTQVTVSS,high polyreactivity
15,QVQLEESGGGLVQAGGSLRLSCAASGITFSDYAMGWYRQAPGKERELVAGISFTVGSTYYADSVKRPFTISRDNAKNTVYLQMNSLKPEDTAVYLCNADSFVDLDYWGQGTQVTVSS,low polyreactivity
16,QVQLVESGGGLVQAGGSLRLSCAASGSIFNVYVMGWYRQAPGKERELVAAITWSGGTTYYADSVKGRFTISRDNAKNTVYLQMNSLKPEDTAVYYCAAEVWYFYDGYDYWGQGTQVTVSS,high polyreactivity
17,QVQLVESGGGLVQAGGSLRLSCAASGRIFGNYAMGWYRQAPGKERELVAAIRWSGGRTYYADSVKGRFTISRDTAKNTVYLQMNSLKPEDTAVYYCNAYGRYSYPTFDYWGQGTQVTVSS,high polyreactivity
18,QVQLVESGGGLVQAGGSLRLSCAASGSTFRTYAMGWYRQAPGKERELVATITRTGGSTYYADSVKGRFTISRDNAKNTVYLQMNSLKPEDTAVYYCAARRSHQYRGPHFNYWGQGTLVTVSS,low polyreactivity
19,QVQLVESGGGLVQAGGSLRLSCAASGITFYWYTMGWYRQAPGKERELVADIEGDGGSTYYADSVKGRFTISRDNAKNTVYLQMNSLKPEDTAVYYCAAQVWPWGYDYWGQGTQVTVSS,high polyreactivity
20,QVQLVESGGGLVQAGGSLRLSCAASGSTFLLNAMGWYRPAPGKERELVAAITWTGGSTYYADSVKGRFTISRDNAKNTVYLQMNILKPEDTAVYYCAAEHYEYWRELVTSEYDYWGKGTQVTVSS,low polyreactivity
21,QVQLVESGGGLVQAGGSLRLSSAASGLIFFTYAMGWYRQAPGKERELVATISRGGRTKYADSVKGRFTISRDNAKNSVYLQMNSLKPEDTAVYYCAAYLSRSYYAYDYWGQGTQVTVSS,high polyreactivity
